Reference: the supplement of paper PMC12042874
± gives the uncertainty stated by the source.

Assay: amyloid nucleation score (Sup35N fusion, yeast selection) (log enrichment); library NNK3; higher = more nucleation; inactive = no reads after selection
In short: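 In psi-negative yeast, Sup35N fusions carrying peptides of 20 random codons were induced with 100 μM copper sulfate for 24 hours. The cells then grew 7 days at 30°C on medium lacking adenine and uracil, and plasmid inserts from input and output were Illumina-sequenced, excluding sequences with under 100 input reads. Nucleation score is the DiMSum log enrichment of output over input reads, centred on the mode score of non-aggregating sequences.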
In the case of RDDNAKNVGSPRAAHTRALR, the amyloid nucleation score is reported as “inactive”.
In the case of FIGLIVLILRVFGYDTMRYL, the amyloid nucleation score is reported as “inactive”.
In the case of DKRFELNRALLTVPWDQNRA, the amyloid nucleation score is reported as “inactive”.
In the case of FDSFLWLTMNWIELIGNILV, the amyloid nucleation score is reported as “inactive”.
With VIYHPRFSRFLCEDWHDTCS the amyloid nucleation score was “inactive”.
For SCAAPMIILTDKSCGRRGLG, the amyloid nucleation score was “inactive”.
For VVGFDSCGRWEVNVSYDSGT, the amyloid nucleation score was “inactive”.
With EIGSHIGDVQHRVFYNVTLV the amyloid nucleation score was “inactive”.
With LNVRSI the amyloid nucleation score was “inactive”.
In the case of ALMRVSSLCHLSGKVCLTLA, the amyloid nucleation score is reported as “inactive”.
In the case of FLPRLSNIWPNFDSSEQLRY, the amyloid nucleation score is reported as “inactive”.
With NCYRRTLHSSWREWIWPIGC the amyloid nucleation score was -0.062 ± 0.82.
For PGFSLFLGLRSVWKHFFCFR, the amyloid nucleation score was “inactive”.
With SELRWYL the amyloid nucleation score was “inactive”.
With LWKVRCSSGHGEIYAYCDMA the amyloid nucleation score was “inactive”.
Work on HMSVVSVFIRRMPNASSTRR yielded an amyloid nucleation score of 0.562 ± 0.13.
With DSIRLLLALPH the amyloid nucleation score was “inactive”.
NSGDGSGVRFYSDNMDTYMA showed an amyloid nucleation score of 0.185 ± 0.88.
For CDFGFRMEEESLQRR, the amyloid nucleation score was “inactive”.
For YACMCLCELSASYKLDTMC, the amyloid nucleation score was “inactive”.
With FVEISRSGLLWFDF the amyloid nucleation score was “inactive”.
In the case of FYNVRF, the amyloid nucleation score is reported as “inactive”.
For FFRDQLRRLYLSSALMQFRM, the amyloid nucleation score was “inactive”.
LCIFKVLF gave an amyloid nucleation score of 0.969 ± 0.16.
For YIVLKYSEMRTRVTDYRTTG, the amyloid nucleation score was “inactive”.
For RRMLNAVEMSYRVGKFSFCW, the amyloid nucleation score was “inactive”.
In the case of TYFTFSTWLRMYSGYSLVQV, the amyloid nucleation score is reported as “inactive”.
With LHLYNVDVNLIGPQVY the amyloid nucleation score was “inactive”.
For RFLLDRACLWLRGVI, the amyloid nucleation score was “inactive”.
For HAGATL, the amyloid nucleation score was “inactive”.
In the case of EKYRNGGY, the amyloid nucleation score is reported as “inactive”.
For RSNLRLGSRDKPAIQL, the amyloid nucleation score was “inactive”.
Work on AYSSQSTCTFCASIFSDSKI yielded an amyloid nucleation score of 2.68 ± 0.077.
Substance YMLIKYGSL has an amyloid nucleation score of 0.449 ± 0.35.
With AVFGCFWFAMGLSFLYAKSL the amyloid nucleation score was “inactive”.
In the case of FKGPVDCSVIV, the amyloid nucleation score is reported as “inactive”.
For RKGHDVVAVYWADLHSSGIV, the amyloid nucleation score was “inactive”.
In the case of HSCITFSLPCTFRQRFCLLS, the amyloid nucleation score is reported as “inactive”.
With ICWLVMEVLG the amyloid nucleation score was “inactive”.
For HHYCRGSICESVSQMYWISW, the amyloid nucleation score was “inactive”.
With RSPEFCMS the amyloid nucleation score was “inactive”.
Substance LFLLNVAYCNCFT has an amyloid nucleation score of 3.27 ± 0.059.
With YLFRNLRGRAIFVNKIIGQR the amyloid nucleation score was “inactive”.
Substance GDHSDWRKRGSLLNGVVLCV has an amyloid nucleation score of -0.5 ± 1.5.
With VYMGTVWCSRAI the amyloid nucleation score was “inactive”.
In the case of SEYLVMLTGWVTTHLQMLWV, the amyloid nucleation score is reported as “inactive”.
In the case of IFFAMISCTYLLDCVDRNWG, the amyloid nucleation score is reported as “inactive”.
For CSDCDWSDFFVDVSFWIMVI, the amyloid nucleation score was “inactive”.
In the case of IRCMRGTTRHVSGLKRVERN, the amyloid nucleation score is reported as “inactive”.
For LLLVSLELTRLNSHEWVYVI, the amyloid nucleation score was “inactive”.
For NCVYVLESD, the amyloid nucleation score was -0.075 ± 0.32.
In the case of PEGVSGIAE, the amyloid nucleation score is reported as “inactive”.
For RFIDWQVCD, the amyloid nucleation score was “inactive”.
For CYYDEVFAFLSLMTFRIQNK, the amyloid nucleation score was “inactive”.
Work on RMVHS yielded an amyloid nucleation score of 1.62 ± 0.091.
In the case of MWSVLIRSTIDYAVPNWSRF, the amyloid nucleation score is reported as “inactive”.
With HLSFDIVV the amyloid nucleation score was “inactive”.
Substance KWDSKFRYLADGHNQLPC has an amyloid nucleation score of 0.605 ± 0.38.
In the case of WFFTLCSSDQVSRGMR, the amyloid nucleation score is reported as “inactive”.
In the case of GAGYADICPTAFHMPRWVFN, the amyloid nucleation score is reported as “inactive”.
With TANLGRCYCKLSNFTSGWFL the amyloid nucleation score was “inactive”.
With CTRSVSILESLRDSNTSLSQ the amyloid nucleation score was “inactive”.
For CRRRYSDLSIYLLVSNDVIV, the amyloid nucleation score was “inactive”.
In the case of LAVSGKEHAK, the amyloid nucleation score is reported as “inactive”.
For CEGVAHSDMFLRLLLTETGL, the amyloid nucleation score was -0.792 ± 1.8.
In the case of ILKMFTSGYCRVLWDLVVMV, the amyloid nucleation score is reported as “inactive”.
For ILVKIRNRCLEVE, the amyloid nucleation score was -0.32 ± 1.1.
With TKGFDVPT the amyloid nucleation score was “inactive”.
With LFGFQNDCYMDNRYW the amyloid nucleation score was “inactive”.
VFSFLYIRNV gave an amyloid nucleation score of 1.55 ± 0.087.
In the case of VDGSVNMRALKCINNCVL, the amyloid nucleation score is reported as “inactive”.
For PITDNHFG, the amyloid nucleation score was -0.697 ± 1.4.
With AVRVEVLGLWYHLKCCWCFL the amyloid nucleation score was -0.755 ± 1.9.
For KCEFN, the amyloid nucleation score was “inactive”.
For ANKSCGHVDWDIGESYMARL, the amyloid nucleation score was “inactive”.
For PVLSIYWTGPLKFNYIMMGL, the amyloid nucleation score was “inactive”.
For PLCNCVNRENSDGMMWGYRE, the amyloid nucleation score was “inactive”.
In the case of NNLTEEEMDLAPTVSHYLYK, the amyloid nucleation score is reported as “inactive”.
With FEKGSFLDRTESSHIGGLMH the amyloid nucleation score was “inactive”.
In the case of QSRPKMMFLDSGCFWGFCVR, the amyloid nucleation score is reported as “inactive”.
In the case of FQRVPNWVSIILTGYRGNTC, the amyloid nucleation score is reported as “inactive”.
For VSGYNW, the amyloid nucleation score was “inactive”.
For YIIFNFIDFYKPGWGFQWTV, the amyloid nucleation score was 2.82 ± 0.052.
For NQVMKSNVVYYKATVNNMCF, the amyloid nucleation score was 2.09 ± 0.071.
In the case of IELVFAHVYCGMRWNSEASR, the amyloid nucleation score is reported as 1.4 ± 0.084.
In the case of YFSYLCGVRYLYCFKLCSSM, the amyloid nucleation score is reported as “inactive”.
In the case of VLVCTLVTSLTDAKFRKYFS, the amyloid nucleation score is reported as 0.813 ± 0.2.
For VVGSDGMFTCSCLREVR, the amyloid nucleation score was “inactive”.
In the case of LVVIG, the amyloid nucleation score is reported as “inactive”.
In the case of GESAKDVFGSLCRRLISIQL, the amyloid nucleation score is reported as “inactive”.
With LSFRTQALFYFVMLYGIWRA the amyloid nucleation score was “inactive”.
For AFQMCATGRRIDTGDVSFVV, the amyloid nucleation score was “inactive”.
For TSYYSMVEHSLKYQDRLMSS, the amyloid nucleation score was “inactive”.
With TKMDETDLLMFAVLTGGLNG the amyloid nucleation score was “inactive”.
With VFGMKSRDIRIS the amyloid nucleation score was “inactive”.
With QPAFPWTYVFLLYHGW the amyloid nucleation score was “inactive”.
In the case of YLTGTMSVEFRPHGMPNLSK, the amyloid nucleation score is reported as 1.82 ± 0.08.
With ISYSAMVNCPDEIWVRYSSW the amyloid nucleation score was “inactive”.
In the case of SFRFLV, the amyloid nucleation score is reported as “inactive”.
For SHVSRVNEVSVISMSDINDH, the amyloid nucleation score was “inactive”.
For LNTGLLLLCG, the amyloid nucleation score was “inactive”.
In the case of ILVTLMVYIPHEYISVINLL, the amyloid nucleation score is reported as “inactive”.
In the case of SSFGQICIRSMQYLVGCKWC, the amyloid nucleation score is reported as “inactive”.
For GCNRVIYKRI, the amyloid nucleation score was -0.609 ± 1.2.
Work on NRTFNYNIQNVGSSWEL yielded an amyloid nucleation score of 0.233 ± 0.19.
For RRFVFVYINVPC, the amyloid nucleation score was “inactive”.
For LSSIAFCFN, the amyloid nucleation score was 1.15 ± 0.15.
For IAVDFRYCYDYGSNSSCRLA, the amyloid nucleation score was 1.88 ± 0.11.
With IGKVLDAFGE the amyloid nucleation score was “inactive”.
NMYWSISDRFRIV showed an amyloid nucleation score of 0.424 ± 0.71.
Work on VFYMRSETKLFL yielded an amyloid nucleation score of -0.391 ± 0.8.
In the case of YSDWELVSGVQLA, the amyloid nucleation score is reported as “inactive”.
In the case of QPYIVFISGFVSSLWESVRK, the amyloid nucleation score is reported as “inactive”.
For CANCMNNVCVSCGCSLQLTL, the amyloid nucleation score was 2.89 ± 0.054.
With FYHNNYINANHVWRKSY the amyloid nucleation score was “inactive”.
With KLDSLPEYFSATLWLDMSVF the amyloid nucleation score was “inactive”.
With YLSVIKNTIPEMWIIVGVCR the amyloid nucleation score was “inactive”.
Substance IMHIYYTYSIPLCDRRGRSY has an amyloid nucleation score of 0.856 ± 0.26.
For MCRVV, the amyloid nucleation score was -0.294 ± 0.93.
In the case of PHMSLKTFSDS, the amyloid nucleation score is reported as “inactive”.
For QSGTLLGLLHQANYLGYAF, the amyloid nucleation score was “inactive”.
In the case of EVYEMNSIRMRSSELSME, the amyloid nucleation score is reported as “inactive”.
In the case of YFNRNQYVDDTCG, the amyloid nucleation score is reported as “inactive”.
With LYAINLWLAVFYRLQQFMDV the amyloid nucleation score was “inactive”.
For SILTMLPKFGFVESLLECEG, the amyloid nucleation score was “inactive”.
For NWYVECYITYSLVLYLANDS, the amyloid nucleation score was 1.69 ± 0.066.
For HVAGTCAQLTLFKDIGLTYK, the amyloid nucleation score was “inactive”.
In the case of LAGSSVVKLYGPVLRFFSSL, the amyloid nucleation score is reported as “inactive”.
For MLVASGDTAENYSTSVYCV, the amyloid nucleation score was “inactive”.
Work on FVSGDSNTIIQPMAYNMDSK yielded an amyloid nucleation score of -0.282 ± 0.42.
For SIDYADVK, the amyloid nucleation score was “inactive”.
For YYFDDVTLKASTRDRVLARG, the amyloid nucleation score was “inactive”.
For YWMNERLTSSKYDAGR, the amyloid nucleation score was “inactive”.
RSFFSWAMNMRGLARWAWME showed an amyloid nucleation score of 1.78 ± 0.11.
With LCAQGYDLFALCKVYWLREW the amyloid nucleation score was “inactive”.
For VSRKRQLWEKCGTFVQRASM, the amyloid nucleation score was “inactive”.
In the case of WRKTRGLNILRLWSLVSFRM, the amyloid nucleation score is reported as “inactive”.
With SLWMFCYSDSYRCKDNFLRN the amyloid nucleation score was “inactive”.
In the case of SRYLGKGFVSGTCDVGCGLN, the amyloid nucleation score is reported as “inactive”.
For IQCYNLSLPAGGEKLVRKRV, the amyloid nucleation score was “inactive”.
In the case of IGKRIFKLCVMYGYYLHLNF, the amyloid nucleation score is reported as “inactive”.
LSFYCFNYSNFDMVWNGKYN gave an amyloid nucleation score of 2.29 ± 0.062.
In the case of LPYYCSIDAVMCREPTGLGS, the amyloid nucleation score is reported as “inactive”.
Work on RKERGSVFGSIWQFSCIRR yielded an amyloid nucleation score of 0.731 ± 0.25.
For SGFYNWI, the amyloid nucleation score was “inactive”.
In the case of IVKKHVDFQQTVN, the amyloid nucleation score is reported as “inactive”.
LVEHVEVCVIYCSCDCFSSV gave an amyloid nucleation score of 1.86 ± 0.059.
In the case of CSMPFTSSEKLGKCGNDAPF, the amyloid nucleation score is reported as “inactive”.
LLLVWRLKVSGGLDSNRTGV gave an amyloid nucleation score of 1.05 ± 0.13.
With TRSCNLNTFKVDASGPPWHG the amyloid nucleation score was “inactive”.
In the case of FLRLSMKLHNLWYLLGSLWS, the amyloid nucleation score is reported as “inactive”.
For SFPKYRSNEDFPMDIRCNSS, the amyloid nucleation score was “inactive”.
In the case of AKARMNGEDGARLTSMHSLY, the amyloid nucleation score is reported as “inactive”.
In the case of LKLTHD, the amyloid nucleation score is reported as “inactive”.
In the case of PSYEAASK, the amyloid nucleation score is reported as “inactive”.
With LSGFSMIFREDNSVVFV the amyloid nucleation score was “inactive”.
With NESLIKVCSALILRKNMCGP the amyloid nucleation score was “inactive”.
For LQVLFSYYFENRSGDLVRDD, the amyloid nucleation score was 0.641 ± 0.14.
In the case of FELVIYQIVRIIVRSLADIS, the amyloid nucleation score is reported as “inactive”.
